“And” between values parts separate entries of the source, which are not always exact repeats. Identical values can stand only once.

For orientation: Kd means the free concentration of one partner at which half of the binding sites on the other are occupied at equilibrium, for simple one-to-one binding.

First the molecules themselves.
B3: human factor XII (Hageman factor) (enzyme, UniProt P00748 20-615, looked up)
chain: IPPWEAPKEHKYKAEEHTVVLTVTGEPCHFPFQYHRQLYHKCTHKGRPGPQPWCATTPNFDQDQRWGYCLEPKKVKDHCSKHSPCQKGGTCVNMPSGPHCLCPQHLTGNHCQKEKCFEPQLLRFFHKNEIWYRTEQAAVARCQCKGPDAHCQRLASQACRTNPCLHGGRCLEVEGHRLCHCPVGYTGAFCDVDTKASCYDGRGLSYRGLARTTLSGAPCQPWASEATYRNVTAEQARNWGLGGHAFCRNPDNDIRPWCFVLNRDRLSWEYCDLAQCQTPTQAAPPTPVSPRLHVPLMPAQPAPPKPQPTTRTPPQSQTPGALPAKREQPPSLTRNGPLSCGQRLRKSLSSMTRVVGGLVALRGAHPYIAALYWGHSFCAGSLIAPCWVLTAAHCLQDRPAPEDLTVVLGQERRNHSCEPCQTLAVRSYRLHEAFSPVSYQHDLALLRLQEDADGSCALLSPYVQPVCLPSGAARPSETTLCQVAGWGHQFEGAEEYASFLQEAQVPFLSLERCSAPDVHGSSILPGMLCAGFLEGGTDACQGDSGGPLVCEDQAAERRLTLQGIISWGSGCGDRNKPGVYTDVAYYLAWIREHTVS
notes: also called FXII; fXII
B4: recombinant tissue-type plasminogen activator (tPA) (enzyme, human, UniProt P00750 36-562, looked up)
chain: SYQVICRDEKTQMIYQQHQSWLRPVLRSNRVEYCWCNSGRAQCHSVPVKSCSEPRCFNGGTCQQALYFSDFVCQCPEGFAGKCCEIDTRATCYEDQGISYRGTWSTAESGAECTNWNSSALAQKPYSGRRPDAIRLGLGNHNYCRNPDRDSKPWCYVFKAGKYSSEFCSTPACSEGNSDCYFGNGSAYRGTHSLTESGASCLPWNSMILIGKVYTAQNPSAQALGLGKHNYCRNPDGDAKPWCHVLKNRRLTWEYCDVPSCSTCGLRQYSQPQFRIKGGLFADIASHPWQAAIFAKHRRSPGERFLCGGILISSCWILSAAHCFQERFPPHHLTVILGRTYRVVPGEEEQKFEVEKYIVHKEFDDDTYDNDIALLQLKSDSSRCAQESSVVRTVCLPPADLQLPDWTECELSGYGKHEALSPFYSERLKEAHVRLYPSSRCTSQHLLNRTVTDNMLCAGDTRSGGPQANLHDACQGDSGGPLVCLNDGRMTLVGIISWGLGCGQKDVPGVYTKVTNYLDWIRDNMRP
notes: Commercial full-length recombinant tPA; also called Alteplase; Actilyse
B9: tPA-F-EGF-GST (finger and EGF domains of human tPA with C-terminal GST tag) (other, UniProt P00750 36-122, looked up)
chain: SYQVICRDEKTQMIYQQHQSWLRPVLRSNRVEYCWCNSGRAQCHSVPVKSCSEPRCFNGGTCQQALYFSDFVCQCPEGFAGKCCEID
notes: domain: F-EGF; also called F-EGF-tPA; not shown: vector residues and thrombin cleavage site; Schistosoma japonicum glutathion-S-transferase (GST) tag

In assay [1] the target is T1, human amyloid-β peptide Aβ(1-40) (human).
T1 construct: also called hAβ(1-40); amyloid-β(1-40)
T1 sequence (peptide, as listed by the source): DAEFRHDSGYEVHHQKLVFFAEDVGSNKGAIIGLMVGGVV
In words: ELISA, Aβ coated on plate, plasmin overlaid.

The target of assay [2] is B9. As to the kind of experiment: ELISA, 25 µg/ml peptide immobilized, excess εACA, anti-GST detection. A general note: ELISA stands for enzyme-linked immunosorbent assay.
In assay [3] the target is B3. As to the kind of experiment: ELISA, coated ligand, FXII concentration series, 10 mM εACA. The text has this: (§1) Wells were coated in triplicate. […] Ten μg of the peptides that contain cross-β structure, as well as the negative control peptide MΔIAPP and phosphate-buffered saline (PBS), were spotted in duplicate onto methanol-activated nitrocellulose.
The target of assay [4] is B4. In words: ELISA, 25 µg/ml peptide immobilized on Exiqon plates.
Assay [5] addresses T1, human amyloid-β peptide Aβ(1-40). In words: ELISA, coated ligand, FXII concentration series, 10 mM εACA.
Text: as §1

The target is the same in assay [6]. As to the kind of experiment: ELISA, Aβ coated on plate, tPA overlaid.
Assay [7] deals with T2, advanced glycation end product-modified bovine serum albumin, glycated with glucose-6-phosphate (albumin-g6p) (bovine, UniProt P02769 25-607, glycated with glucose-6-phosphate (advanced glycation end products; 59 lysine and 23 arginine residues and the N-terminus are potential glycation sites)).
T2 construct: adopts cross-β structure; also called albumin-AGE; glycated albumin
T2 sequence (P02769 25-607 limits assumed): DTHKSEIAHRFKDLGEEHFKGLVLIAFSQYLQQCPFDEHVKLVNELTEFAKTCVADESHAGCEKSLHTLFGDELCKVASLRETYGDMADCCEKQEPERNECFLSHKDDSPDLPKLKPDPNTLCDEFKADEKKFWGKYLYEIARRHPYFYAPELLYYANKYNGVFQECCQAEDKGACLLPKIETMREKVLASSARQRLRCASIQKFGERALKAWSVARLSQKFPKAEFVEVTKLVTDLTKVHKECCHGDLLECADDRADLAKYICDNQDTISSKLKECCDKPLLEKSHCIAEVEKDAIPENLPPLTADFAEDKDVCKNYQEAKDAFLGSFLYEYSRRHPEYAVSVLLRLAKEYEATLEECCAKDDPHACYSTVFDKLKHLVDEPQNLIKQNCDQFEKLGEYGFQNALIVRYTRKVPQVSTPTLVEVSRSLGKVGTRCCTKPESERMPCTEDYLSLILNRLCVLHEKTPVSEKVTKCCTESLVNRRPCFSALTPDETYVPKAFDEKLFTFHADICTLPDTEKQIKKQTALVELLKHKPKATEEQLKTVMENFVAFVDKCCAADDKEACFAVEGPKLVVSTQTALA
As to the kind of experiment: kD of tPA binding to coated albumin-AGE, quoted for the competitive ELISA.

Assay [8] concerns the target T1, human amyloid-β peptide Aβ(1-40). In words: kD of tPA binding to coated hAβ(1-40), quoted for the competitive ELISA.
Assay [9] shares this target. In words: ELISA, 25 µg/ml peptide immobilized on Exiqon plates.
The target is the same in assay [10]. As to the kind of experiment: ELISA on Exiqon plates.
The target of assay [11] is B3. In words: ELISA, immobilized peptide.
Assay [12] concerns the target B4. In words: ELISA, immobilized peptide, 10 mM εACA.
The target in assay [13] is T3, Fn F4-5-GST (finger domains 4-5 of human fibronectin with C-terminal GST tag) (human; Schistosoma japonicum, UniProt P02751 182-276).
T3 construct: domain: fibronectin type I domains 4-5; Printed in places as Fn F4-S-GST (a misprint of F4-5); also called Fn F4-S-GST; fibronectin F4-5; not shown: (G)RP vector residues and thrombin cleavage site; Schistosoma japonicum glutathion-S-transferase (GST) tag
T3 sequence (P02751 182-276, tags left off): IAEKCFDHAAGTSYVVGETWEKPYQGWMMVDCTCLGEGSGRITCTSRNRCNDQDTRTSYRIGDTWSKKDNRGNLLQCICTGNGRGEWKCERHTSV
In words: ELISA, immobilized peptide.

Assay [14] addresses T1, human amyloid-β peptide Aβ(1-40). As to the kind of experiment: ELISA, coated ligand, anti-GST detection. As to the method:
FIG. 13. […] “Control,” medium before the pull-down, “Aβ,” washed amyloid Aβ pellet, after the pull-down, “Sup,” medium after extraction with Aβ. […] MΔIAPP was coated as non-amyloid negative control (Panel E). […] The same sections were incubated with Congo red (Panels I, K, and M) to locate amyloid deposits. Panels N and O: Pull-down assay with insoluble Aβ fibrils and finger domains. […] “Control,” medium before the pull-down, “Aβ,” washed amyloid Aβ pellet, after the pull-down, “Sup,” medium after extraction with Aβ.

The target of assay [15] is B3. As to the kind of experiment: dot blot, 10 µg peptide spotted, 2 nM FXII. The source says:
Ten μg of the peptides that contain cross-β structure, as well as the negative control peptide mΔIAPP and phosphate-buffered saline (PBS), were spotted in duplicate.

The target of assay [16] is T1, human amyloid-β peptide Aβ(1-40). As to the kind of experiment: pull-down with Aβ fibrils, Western blot. On the procedure:
“Control,” medium before the pull-down, “Aβ,” washed amyloid Aβ pellet, after the pull-down, “Sup,” medium after extraction with Aβ. […] MΔIAPP was coated as non-amyloid negative control (Panel E). […] The same sections were incubated with Congo red (Panels I, K, and M) to locate amyloid deposits. Panels N and O: Pull-down assay with insoluble Aβ fibrils and finger domains. […] “Control,” medium before the pull-down, “Aβ,” washed amyloid Aβ pellet, after the pull-down, “Sup,” medium after extraction with Aβ.
Conditioned medium was used for pull-down assays using Aβ and IAPP fibrils, followed by Western blot analyses.
(In western blotting, separated proteins are transferred to a membrane and probed.)

For assay [17], the target named is B3. In words: ELISA, factor XII immobilized, β2gpi concentration series, detection with antibody 2B2.
Assay [18] deals with B4. As to the kind of experiment: ELISA, tPA immobilized, β2gpi concentration series, detection with antibody 2B2.
Assay [19] deals with T1, human amyloid-β peptide Aβ(1-40). In words: ELISA, 25 µg/ml peptide immobilized, excess εACA, anti-GST detection.

B1: plasmin (activated plasminogen) (enzyme, UniProt P00747 97-810, looked up)
chain: KVYLSECKTGNGKNYRGTMSKTKNGITCQKWSSTSPHRPRFSPATHPSEGLEENYCRNPDNDPQGPWCYTTDPEKRYDYCDILECEEECMHCSGENYDGKISKTMSGLECQAWDSQSPHAHGYIPSKFPNKNLKKNYCRNPDRELRPWCFTTDPNKRWELCDIPRCTTPPPSSGPTYQCLKGTGENYRGNVAVTVSGHTCQHWSAQTPHTHNRTPENFPCKNLDENYCRNPDGKRAPWCHTTNSQVRWEYCKIPSCDSSPVSTEQLAPTAPPELTPVVQDCYHGDGQSYRGTSSTTTTGKKCQSWSSMTPHRHQKTPENYPNAGLTMNYCRNPDADKGPWCFTTDPSVRWEYCNLKKCSGTEASVVAPPPVVLLPDVETPSEEDCMFGNGKGYRGKRATTVTGTPCQDWAAQEPHRHSIFTPETNPRAGLEKNYCRNPDGDVGGPWCYTTNPRKLYDYCDVPQCAAPSFDCGKPQVEPKKCPGRVVGGCVAHPHSWPWQVSLRTRFGMHFCGGTLISPEWVLTAAHCLEKSPRPSSYKVILGAHQEVNLEPHVQEIEVSRLFLEPTRKDIALLKLSSPAVITDKVIPACLPSPNYVVADRTECFITGWGETQGTFGAGLLKEAQLPVIENKVCNRYEFLNGRVQSTELCAGHLAGGTDSCQGDSGGPLVCFEKDKYILQGVTSWGLGCARPNKPGVYVRVSRFVTWIEGVMRNN
B1 showed a Kd in assay [1] of 47 nM.

B2: fibrin peptide 85 (FP13), human fibrin α-chain fragment α148-160 (peptide)
peptide: KRLEVDIDIKIRS
notes: also called fibrin fragment α147-159 FP13
On to B2, for which the Kd in assay [2] was 2 nM; in assay [3], around 11 nM; in [4] it was 5 nM. Turning to B3, the Kd in assay [5] was around 2 nM. B4: the Kd in [6] is around 7 nM; in assay [7], 1 nM; in assay [8], 50 nM; in assay [9], 2 nM; in assay [10], 46 nM. Take AASIKVAVSADR [laminin α1-chain(2097-2108) amyloid core peptide (LAM12)]: the binding result in assay [11] and in assay [12] was “binds” each time. On to YTIAALLSPYS [amyloid fragment of transthyretin (TTR11)], for which the binding result in assay [13], in [11] and in assay [12] was “binds” throughout.

B5: tPA-F-GST (finger domain of human tPA with C-terminal GST tag) (other, UniProt P00750 36-85, looked up)
chain: SYQVICRDEKTQMIYQQHQSWLRPVLRSNRVEYCWCNSGRAQCHSVPVKS
notes: range 1-50; Expressed in 293T or BHK cells; Residues 1-50 count on mature tPA, not on the SwissProt precursor; also called tPA-F domain; F-tPA; not shown: (G)RP vector residues and thrombin cleavage site between domain and GST; Schistosoma japonicum glutathion-S-transferase (GST) tag
Regarding B5, the binding result in assay [14] is recorded as “binds”.

B6: human IAPP amyloid core fragment (ΔhIAPP) (peptide)
peptide: SNNFGAILSS
notes: also called hΔIAPP; human amylin fragment
For B6, the binding result in assay [15] is “binds”.

B7: tPA K1-GST (kringle 1 domain of human tPA with C-terminal GST tag) (other, UniProt P00750 123-210, looked up)
chain: TRATCYEDQGISYRGTWSTAESGAECTNWNSSALAQKPYSGRRPDAIRLGLGNHNYCRNPDRDSKPWCYVFKAGKYSSEFCSTPACSE
notes: domain: K1; not shown: vector residues and thrombin cleavage site; Schistosoma japonicum glutathion-S-transferase (GST) tag
In the case of B7, in assay [16], the binding result was “no binding”.

B8: recombinant human β2-glycoprotein I (expressed in insect cells) (other, UniProt P02749 20-345, looked up)
chain: GRTCPKPDDLPFSTVVPLKTFYEPGEEITYSCKPGYVSRGGMRKFICPLTGLWPINTLKCTPRVCPFAGILENGAVRYTTFEYPNTISFSCNTGFYLNGADSAKCTEEGKWSPELPVCAPIICPPPSIPTFATLRVYKPSAGNNSLYRDTAVFECLPQHAMFGNDTITCTTHGNWTKLPECREVKCPFPSRPDNGFVNYPAKPTLYYKDKATFGCHDGYSLDGPEEIECTKLGNWSAMPSCKASCKVPVKKATVVYQGERVKIQEKFKNGMLHGDKVSFFCKNKEKKCSYTEDAQCIDGTIEVPKCFKEHSSLAFWKTDASDVKPC
notes: also called recombinant β2gpi; rβ2gpi
Consider B8, for which the Kd in [17] was 0.9 µg/mL and 20 nM; in assay [18] it was 2.3 µg/mL and 51 nM. The molecule B9 showed a Kd in [19] of 2 nM.

The values are drawn from patent US20090202980A1 (CROSSBETA BIOSCIENCES B V, published 2009).
